# Measured values published in patent US20210047426A1.
# B1: Sequence-Optimized CD123 × CD3 Bi-Specific Diabody (DART-A) (bispecific antibody)
# chain 1: QAVVTQEPSLTVSPGGTVTLTCRSSTGAVTTSNYANWVQQKPGQAPRGLIGGTNKRAPWTPARFSGSLLGGKAALTITGAQAEDEADYYCALWYSNLWVFGGGTKLTVLGGGGSGGGGEVQLVQSGAELKKPGASVKVSCKASGYTFTDYYMKWVRQAPGQGLEWIGDIIPSNGATFYNQKFKGRVTITVDKSTSTAYMELSSLRSEDTAVYYCARSHLLRASWFAYWGQGTLVTVSSGGCGGGEVAALEKEVAALEKEVAALEKEVAALEK
# chain 2: DFVMTQSPDSLAVSLGERVTMSCKSSQSLLNSGNQKNYLTWYQQKPGQPPKLLIYWASTRESGVPDRFSGSGSGTDFTLTISSLQAEDVAVYYCQNDYSYPYTFGQGTKLEIKGGGSGGGGEVQLVESGGGLVQPGGSLRLSCAASGFTFSTYAMNWVRQAPGKGLEWVGRIRSKYNNYATYYADSVKDRFTISRDDSKNSLYLQMNSLKTEDTAVYYCVRHGNFGNSYVSWFAYWGQGTLVTVSSGGCGGGKVAALKEKVAALKEKVAALKEKVAALKE
# Assays:
# [1] = molecular target: Cynomolgus CD3ε/δ (soluble recombinant cynomolgus monkey CD3) (cynomolgus monkey) (UniProt Q95LI5); test: SPR (BIAcore 3000), antigen immobilized on the chip, DART-A injected, 1:1 Langmuir fit, mean of 3 experiments
# Cynomolgus CD3ε/δ (soluble recombinant cynomolgus monkey CD3) (cynomolgus monkey), sequence (Q95LI5 22-117, stated change not applied, chain 1 of 2): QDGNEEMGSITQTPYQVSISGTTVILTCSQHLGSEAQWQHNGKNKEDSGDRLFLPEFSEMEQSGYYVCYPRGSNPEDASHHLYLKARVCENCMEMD
# Cynomolgus CD3ε/δ (soluble recombinant cynomolgus monkey CD3) (cynomolgus monkey), sequence (Q95LI8 22-105, stated change not applied, chain 2 of 2, further chain): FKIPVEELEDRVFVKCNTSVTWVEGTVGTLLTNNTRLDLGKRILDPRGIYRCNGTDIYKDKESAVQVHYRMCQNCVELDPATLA
# [2] = molecular target: Human CD3ε/δ (soluble recombinant human CD3) (human) (UniProt P07766); test: as above
# Human CD3ε/δ (soluble recombinant human CD3) (human), sequence (P07766 23-126, stated change not applied, chain 1 of 2): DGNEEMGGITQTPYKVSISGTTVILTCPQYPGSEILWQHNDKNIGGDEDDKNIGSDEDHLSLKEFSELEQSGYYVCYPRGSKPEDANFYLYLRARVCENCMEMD
# Human CD3ε/δ (soluble recombinant human CD3) (human), sequence (P04234 22-105, stated change not applied, chain 2 of 2, further chain): as the sequence (Q95LI8 22-105, stated change not applied, chain 2 of 2, further chain) above, with V5I, K15N, V20I, T32S, N33D, N34I, A64T, N74S, L83V counted along it
# [3] = molecular target: Human CD3ε/δ (soluble recombinant human CD3) (human) (UniProt P07766); test: BIACORE surface plasmon resonance, recombinant human CD3 directly immobilized, 1:1 binding fit
# [4] = molecular target: Cynomolgus CD3ε/δ (soluble recombinant cynomolgus monkey CD3) (cynomolgus monkey) (UniProt Q95LI5); test: BIACORE surface plasmon resonance, recombinant cynomolgus monkey CD3 directly immobilized, 1:1 binding fit
binder,measurement,setting,value
B1,Kd,[1],9.2 nM
same,koff,[1],0.005 s⁻¹
same,kon,[1],550000 M⁻¹ s⁻¹
same,Kd,[2],9 nM
same,koff,[2],0.005 s⁻¹
same,kon,[2],570000 M⁻¹ s⁻¹
same,Kd,[3],12.3 nM
same,Kd,[4],9 nM
